Results on one protein are retold here after publication PMC10903754, “o-Vanillin binds covalently to MAL/TIRAP Lys-210 but independently inhibits TLR2” (Journal of Enzyme Inhibition and Medicinal Chemistry, 2024).

This data set concerns the molecule itself. The data set is described as follows: turbidity assay; MAL^TIR ~87.5-103 uM in 10 mM HEPES pH 7.5, 150 mM NaCl, 30 °C; filament formation followed by absorbance at 500 nm over time; with or without o-vanillin and analogues.

B1: TIR domain of human MAL/TIRAP (MAL^TIR), residues 79-221 (domain or fragment, UniProt P58753 79-221, looked up)
chain: SSRWSKDYDVCVCHSEEDLVAAQDLVSYLEGSTASLRCFLQLRDATPGGAIVSELCQALSSSHCRVLLITPGFLQDPWCKYQMLQALTEAPGAEGCTIPLLSGLSRAAYPPELRFMYYVDGRGPDGGFRQVKEAVMRYLQTLS
notes: MAL (MyD88 adaptor-like protein; TIRAP), human, TIR domain, residues 79-221; construct in the vector pMCSG7; For the NMR work the same construct was 13C-15N labelled and kept in low-salt buffer (10 mM HEPES pH 7.5, 10 mM NaCl); also called WT MAL^TIR; MyD88 adaptor-like protein TIR domain; source: E. coli BL21 (DE3), purified (Ni IMAC, TEV cleavage, SEC Superdex 75)
Turning to B1, the binding result is recorded as “binds”.
